# Legend:
# [1] = target: T1, human CD3 expressed on cells (Jurkat cells; human T-cells of PBMC) (human, UniProt P09693 23-182; P20963 22-164); experiment: cell-based or functional assay
# [2] = target: cynomolgus monkey CD3 expressed on monkey T-cells (PBMCs) (cynomolgus monkey, UniProt Q95LI5 22-198; Q95LI8 22-171); experiment: cell-based or functional assay
# [3] = target: T1, human CD3 expressed on cells (Jurkat …); experiment: cell-based or functional assay; remark: listed apart in the source
# [4] = target: T1, human CD3 expressed on cells (Jurkat …); experiment: FACS titration on Jurkat cells, monovalent 1-arm antibody
# Protocol: FACS data was acquired using the following protocol: Cells at 2×10⁵ per well were incubated with serially diluted antibodies for 30 min on ice. Post incubation, cells were washed and secondary antibody was added and incubated for an additional 30 minutes. After incubation, cells were washed, re-suspended in cold PBS containing 1% BSA and analyzed by flow cytometry with viable Jurkat cells gated by side and forward scatters. The EC₅₀s for cell binding titration were determined using Prism software with values calculated using a 4-parameter non-linear regression analysis.
# T1 sequence (chain, as listed by the source, chain 1 of 4): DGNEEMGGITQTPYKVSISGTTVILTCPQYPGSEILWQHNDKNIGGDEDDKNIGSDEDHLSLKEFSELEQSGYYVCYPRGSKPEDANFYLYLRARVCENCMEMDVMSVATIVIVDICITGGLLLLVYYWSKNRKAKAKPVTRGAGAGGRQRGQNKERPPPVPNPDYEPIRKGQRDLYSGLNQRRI
# T1 sequence (chain, as listed by the source, chain 2 of 4): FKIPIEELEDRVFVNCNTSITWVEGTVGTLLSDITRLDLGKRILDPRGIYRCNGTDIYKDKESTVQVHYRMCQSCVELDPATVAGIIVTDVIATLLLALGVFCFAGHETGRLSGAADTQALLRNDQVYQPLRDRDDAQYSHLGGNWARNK
# T1 sequence (P09693 23-182, chain 3 of 4): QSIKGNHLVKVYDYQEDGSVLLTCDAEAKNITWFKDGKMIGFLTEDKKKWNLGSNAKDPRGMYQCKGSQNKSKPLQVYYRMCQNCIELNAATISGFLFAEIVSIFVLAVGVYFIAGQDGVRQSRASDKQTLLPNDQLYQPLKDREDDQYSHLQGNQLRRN
# T1 sequence (P20963 22-164, chain 4 of 4): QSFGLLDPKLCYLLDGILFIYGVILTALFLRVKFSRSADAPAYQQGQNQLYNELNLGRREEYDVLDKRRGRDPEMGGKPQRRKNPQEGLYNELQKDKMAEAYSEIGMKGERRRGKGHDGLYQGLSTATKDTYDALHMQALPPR
# Chain of cynomolgus monkey CD3 expressed on monkey T-cells (PBMCs) (Q95LI5 22-198, chain 1 of 2): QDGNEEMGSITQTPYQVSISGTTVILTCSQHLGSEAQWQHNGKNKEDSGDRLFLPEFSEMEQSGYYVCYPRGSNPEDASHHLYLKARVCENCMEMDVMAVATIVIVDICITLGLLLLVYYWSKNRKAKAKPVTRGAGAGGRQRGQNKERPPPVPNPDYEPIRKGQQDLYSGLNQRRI
# Chain of cynomolgus monkey CD3 expressed on monkey T-cells (PBMCs) (Q95LI8 22-171, chain 2 of 2): as the sequence (chain, as listed by the source, chain 2 of 4) above, with I5V, N15K, I20V, S32T, D33N, I34N, T64A, S74N, V83L, H141R counted along it
EC50 [M] hPBMC Proliferation [1] [M],EC50 [M] mfPBMC Proliferation [2] [M],EC50 [4] [pM],Binder,U937 Cytotoxicity Human T-cells [3] [pM]
2.37e-12,4.84e-12,1500,"H1H7194P (antibody, human IgG1, V domains shown, Monovalent 1-arm format: second Fab removed, only the Fc portion (CH2-CH3) expressed; human IgG1 Fc; tied by the numerical identifier; also called H1H7194B) VH: EVQLVESGGGLVQPGRSLRLSCAASGFTFGDYTMHWVRQAPGKGLEWVSDISWNSGSKDYADSVKGRFTISRDNAKNSLYLQMNSLRTEDTAFYYCAKDSRGYGLYYHLGLDVWGQGTTVTVSS VL: not shown",4.71
1.3e-12,1.83e-11,1450,"H1H7251P (antibody, human IgG1, V domains shown, Monovalent 1-arm format: second Fab removed, only the Fc portion (CH2-CH3) expressed; human IgG1 Fc; tied by the numerical identifier; also called H1H7251B) VH: EVQLVESGGGLVQPGRSLRLSCAASGFTFADYTMHWVRQGPGTGLEWVSDIGWSGGSLGYADSVKGRFTISRDNAKNSLYLEMNNLRPEDTALYYCVKDKSGYGKFQYGLDVWGQGTTVTVSS VL: not shown",1.81
2.43e-12,7.27e-11,1370,"H1H7250P (antibody, human IgG1, V domains shown, Monovalent 1-arm format: second Fab removed, only the Fc portion (CH2-CH3) expressed; human IgG1 Fc; tied by the numerical identifier; also called H1H7250B) VH: QVQLVESGGGLVQPGRSLRLSCAASGFTFDDYTMHWVRQGPGKGLEWVSDIGWNSNTKGYADSVKGRFTISRDNAKNSLYLQMNSLRPEDTALYFCVKDKSGYGKFFIGLDVWGQGTMVTVSS VL: not shown",5.91
2.8e-12,8.88e-11,1090,"H1H7254P (antibody, human IgG1, V domains shown, Monovalent 1-arm format: second Fab removed, only the Fc portion (CH2-CH3) expressed; human IgG1 Fc; tied by the numerical identifier; also called H1H7254B) VH: EVQLVESGGGVVQPGRSLRLSCAASGFKFDGYTMHWVRQGPGKGLEWVSDIGWNSNTIGYADSVKGRFTISRDNAKNSLYLQMNSLRPEDTALYFCVKDKSGYGKFFIGLDVWGQGTMVTVSS VL: not shown",4.18

# Continued, binder first:
Binder,EC50 [M] hPBMC Proliferation [1] [M],EC50 [M] mfPBMC Proliferation [2] [M],EC50 [4] [pM],U937 Cytotoxicity Human T-cells [3] [pM]
"H1H7195P (antibody, human IgG1, V domains shown, Monovalent 1-arm format: second Fab removed, only the Fc portion (CH2-CH3) expressed; human IgG1 Fc; tied by the numerical identifier; also called H1H7195B) VH: EVQLVESGGGLVQPGRSLRLSCAASGFTFADYTMHWVRQAPGKGLEWVSDISWNSGSIAYADSVKGRFTISRDNAKNSLYLQMNSLRTEDTAFYYCAKDSRGYGHYKYLGLDVWGQGTTVTVSS VL: not shown",2.42e-12,1.36e-12,342,6.1
"H1H7241P (antibody, human IgG1, V domains shown, Monovalent 1-arm format: second Fab removed, only the Fc portion (CH2-CH3) expressed; human IgG1 Fc; tied by the numerical identifier; also called H1H7241B) VH: EVQLVESGGGLVQPGRSLRLSCAASGFTFADYTMHWVRQGPGKGLEWVSDIGWNSNTIGYADSVKGRFAISRDNAKNSLYLQMNSLRPEDTALYYCVKDKSGYGKFQYGLDVWGQGTTVTVSS VL: not shown",1.05e-12,2.05e-11,1010,12.3
"H1H7258P (antibody, human IgG1, V domains shown, Monovalent 1-arm format: second Fab removed, only the Fc portion (CH2-CH3) expressed; human IgG1 Fc; tied by the numerical identifier; also called H1H7258B) VH: QVQLVESGGGLVQPGRSLRLSCAASGFTFDDYTMHWVRQGPGKGLEWVSDIGWNSNTIGYADSVKGRFTISRDNARNSLYLQMNSLRPEDTALYYCVKDKSGYGKFQYGLDVWGQGTTVTVSS VL: not shown",2.17e-12,1.11e-11,1070,15.3
"H1H7196P (antibody, human IgG1, V domains shown, Monovalent 1-arm format: second Fab removed, only the Fc portion (CH2-CH3) expressed; human IgG1 Fc; tied by the numerical identifier; also called H1H7196B) VH: EVQLVESGGGMVQPGRSLRLSCAASGFPFNDYTMHWVRQVPGRGLEWVSDISWNSGSKGYADSVKGRFIISRDNAKNSLYLQMNSLRVEDTALYYCVKDGSGYGRFHYYAMDVWGQGTTVTVSS VL: not shown",1.27e-12,1.4e-08,34400,19.6
